In US20210330742A1 (RUN X, published 2021):

Molecular target: CDK4 (UniProt P11802 2-303)
Assay: co-IP and immunoblot, time course after serum stimulation
Method: FIG. 2a is a diagram confirming that E2F1 was combined with RUNX3 by measuring the time-dependent formation of BRD2-RUNX3, E2F1-RUNX3, CDK4-RUNX3, Cyclin D1-RUNX3, HDAC4-RUNX3, p16INK4a-CDK4, p21-CDK4, Cyclin D1-CDK4 and HDAC4-CDK4 complexes by immunoprecipitation (IP) and immunoblotting (IB), and the time-dependent phosphorylation of pRB (at Ser-795) and ERK1/2 by immunoblotting (IB).
Transient transfection was performed in all cell lines using lipofectamine plus reagent and lipofectamine (Invitrogen). Cell lysates were incubated with an appropriate monoclonal or polyclonal antibody (2 μg of antibody/500 μg of lysate sample) at 4° C. for 3 hours, followed by incubation with protein G-Sepharose beads (Amersham Pharmacia Biotech, Piscataway, NJ, USA). For the detection of endogenous proteins at 4° C. for 1 hour, the lysate was incubated with an appropriate monoclonal or polyclonal antibody (1:1000-1:3000) at 4° C. for 6 to 12 hours, and then protein G-Sepharose beads (Amersham Pharmacia Biotech) were […] at 4° C. for 3 hours. The immune precipitate was […] on an SDS-polyacrylamide gel electrophoresis (SDS-PAGE) gel and transferred to a PVDF membrane (Millipore, Billerica, Mass., USA). […]

Sequence of CDK4 (P11802 2-303 limits assumed): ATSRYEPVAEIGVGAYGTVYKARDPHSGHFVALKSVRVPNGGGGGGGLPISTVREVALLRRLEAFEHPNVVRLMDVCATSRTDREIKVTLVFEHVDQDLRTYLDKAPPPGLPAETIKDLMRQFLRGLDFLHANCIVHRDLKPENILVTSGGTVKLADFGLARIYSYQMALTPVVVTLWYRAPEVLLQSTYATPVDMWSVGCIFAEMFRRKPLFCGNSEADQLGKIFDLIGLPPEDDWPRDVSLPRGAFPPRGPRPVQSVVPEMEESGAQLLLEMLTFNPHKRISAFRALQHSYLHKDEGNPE

binding result: binds
B1: p16INK4a (other, UniProt P42771 1-156, looked up)
chain: MEPAAGSSMEPSADWLATAAARGRVEEVRALLEAGALPNAPNSYGRRPIQVMMMGSARVAELLLLHGAEPNCADPATLTRPVHDAAREGFLDTLVVLHRAGARLDVRDAWGRLPVDLAEELGHRDVARYLRAAAGGTRGSNHARIDAAEGPSDIPD
